# ± gives the uncertainty stated by the source.
# B1: Gamma-crystallin C, residues 91 to 170; numbered along this chain, P07315 (parent)
# chain: RLYEREDHKGLMMELSEDCPSIQDRFHLSEIRSLHVLEGCWVLYELPNYRGRQYLLRPQEYRRCQDWGAMDAKAGSLRRV
# Variants of: B1
# Experiment: abundance fitness (aPCA) (normalised: wild type 0, dead -1); higher = more abundant; growth selection in yeast, the domain comes from the species named
# Details: Homo sapiens
row,Variant,abundance fitness
1,M70R,-0.016 ± 0.039
2,M70C,-0.217 ± 0.25
3,M70Y,-0.105 ± 0.14
4,M70L,-0.063 ± 0.06
5,M70H,0.049 ± 0.11
6,M70P,0.064 ± 0.06
7,M70T,-0.06 ± 0.079
8,M70K,-0.053 ± 0.15
9,M70G,-0.167 ± 0.062
10,M70S,-0.052 ± 0.052
11,M70V,-0.017 ± 0.083
12,M70I,0.097 ± 0.23
13,M70W,-0.257 ± 0.075
14,M70F,-0.226 ± 0.13
15,M70E,0.034 ± 0.1
16,M70D,0.094 ± 0.14
17,E60P,-0.142 ± 0.062
18,E60H,-0.174 ± 0.095
19,E60T,-0.081 ± 0.07
20,E60F,-0.468 ± 0.35
21,E60V,-0.117 ± 0.09
22,E60L,-0.001 ± 0.047
23,E60W,-0.206 ± 0.084
24,E60I,-0.219 ± 0.18

row,Variant,abundance fitness
1,E60A,0.045 ± 0.06
2,E60C,-0.172 ± 0.1
3,E60M,-0.162 ± 0.13
4,E60Q,0.034 ± 0.1
5,E60R,0.006 ± 0.071
6,E60D,-0.235 ± 0.19
7,E60S,-0.018 ± 0.067
8,E60K,-0.197 ± 0.18
9,E60Y,-0.069 ± 0.14
10,D71W,-0.281 ± 0.085
11,D71G,-0.165 ± 0.067
12,D71R,-0.224 ± 0.066
13,D71H,-0.173 ± 0.11
14,D71Y,-0.134 ± 0.12
15,D71S,-0.015 ± 0.057
16,D71A,-0.483 ± 0.19
17,D71L,-0.5 ± 0.078
18,D71F,-0.148 ± 0.099
19,D71I,-0.297 ± 0.18
20,D71E,-0.185 ± 0.11
21,D71N,-0.173 ± 0.18
22,D71C,-0.029 ± 0.11
23,D71T,0.024 ± 0.12
24,D71M,-0.443 ± 0.23

row,Variant,abundance fitness
1,D71P,-0.933 ± 0.35
2,D71K,-0.126 ± 0.078
3,Y61G,-0.925 ± 0.16
4,Y61S,-0.936 ± 0.12
5,Y61L,-0.922 ± 0.15
6,Y61T,-0.529 ± 0.12
7,Y61R,-1.06 ± 0.21
8,Y61M,-0.964 ± 0.2
9,Y61I,-0.808 ± 0.37
10,Y61H,-0.919 ± 0.32
11,Y61C,-0.934 ± 0.14
12,Y61V,-1.05 ± 0.26
13,Y61A,-1.04 ± 0.34
14,Y61P,-1.07 ± 0.2
15,R63T,0.016 ± 0.076
16,R63C,-0.15 ± 0.14
17,R63D,-0.58 ± 0.16
18,R63Q,-0.089 ± 0.05
19,R63A,-0.056 ± 0.043
20,R63E,-0.234 ± 0.091
21,R63L,-0.654 ± 0.052
22,R63P,-1.02 ± 0.18
23,R63Y,-0.23 ± 0.18
24,R63S,-0.091 ± 0.057

row,Variant,abundance fitness
1,R63F,-0.574 ± 0.18
2,R63M,-0.32 ± 0.11
3,R63H,-0.167 ± 0.12
4,K73S,-0.145 ± 0.076
5,K73F,-0.368 ± 0.14
6,K73T,-0.124 ± 0.087
7,K73G,-0.304 ± 0.071
8,K73E,-0.495 ± 0.14
9,K73C,-0.175 ± 0.17
10,K73V,-0.18 ± 0.08
11,K73M,-0.231 ± 0.11
12,K73P,-0.628 ± 0.15
13,K73W,-0.321 ± 0.12
14,K73N,-0.026 ± 0.15
15,K73H,-0.042 ± 0.18
16,K73Y,-0.295 ± 0.21
17,K73A,-0.069 ± 0.065
18,K73R,0.017 ± 0.05
19,K73L,-0.185 ± 0.072
20,K73Q,-0.264 ± 0.16
21,W67R,-0.744 ± 0.1
22,W67S,-0.778 ± 0.11
23,W67P,-0.935 ± 0.17
24,W67A,-0.944 ± 0.22

row,Variant,abundance fitness
1,W67L,-0.951 ± 0.14
2,W67C,-0.703 ± 0.25
3,W67E,-1.07 ± 0.49
4,W67Q,-0.681 ± 0.19
5,W67K,-0.827 ± 0.36
6,W67T,-0.612 ± 0.27
7,W67H,-0.89 ± 0.42
8,W67G,-1 ± 0.19
9,G68L,-0.529 ± 0.092
10,G68T,-1.01 ± 0.28
11,G68P,-0.784 ± 0.22
12,G68A,-0.721 ± 0.15
13,G68R,-0.764 ± 0.12
14,G68Q,-0.763 ± 0.2
15,G68S,-0.44 ± 0.11
16,G68C,-0.696 ± 0.48
17,G68K,-0.623 ± 0.26
18,G68D,-0.679 ± 0.27
19,G68V,-0.985 ± 0.29
20,L56P,-0.931 ± 0.21
21,L56I,-0.515 ± 0.25
22,L56K,-0.806 ± 0.44
23,L56A,-0.939 ± 0.21
24,L56W,-0.988 ± 0.18

row,Variant,abundance fitness
1,L56R,-0.836 ± 0.1
2,L56H,-0.953 ± 0.32
3,L56T,-0.636 ± 0.18
4,L56S,-0.957 ± 0.18
5,L56G,-0.928 ± 0.11
6,L56M,-0.553 ± 0.23
7,L56E,-0.93 ± 0.41
8,L56Y,-0.926 ± 0.35
9,R52G,-0.402 ± 0.21
10,R52L,-0.219 ± 0.087
11,R52H,-0.324 ± 0.19
12,R52T,-0.058 ± 0.16
13,R52E,-0.28 ± 0.19
14,R52N,-0.031 ± 0.49
15,R52I,-0.31 ± 0.19
16,R52S,-0.234 ± 0.12
17,R52Q,-0.128 ± 0.13
18,R52P,-0.093 ± 0.16
19,R52C,-0.587 ± 0.31
20,R52W,-0.523 ± 0.16
21,R52D,-0.338 ± 0.12
22,R52V,-0.137 ± 0.1
23,R52A,0.009 ± 0.11
24,Q53D,-0.241 ± 0.2

row,Variant,abundance fitness
1,Q53W,-0.225 ± 0.11
2,Q53A,-0.122 ± 0.056
3,Q53H,-0.386 ± 0.34
4,Q53L,-0.78 ± 0.12
5,Q53S,0.074 ± 0.056
6,Q53V,-0.747 ± 0.18
7,Q53R,-0.092 ± 0.051
8,Q53T,-0.197 ± 0.12
9,Q53P,-0.144 ± 0.053
10,Q53M,-0.345 ± 0.17
11,Q53F,-0.425 ± 0.29
12,Q53K,-0.19 ± 0.17
13,Q53E,0.087 ± 0.086
14,Q53C,-0.219 ± 0.1
15,Q53N,0.005 ± 0.35
16,Q53G,-0.103 ± 0.065
17,Q53Y,-0.159 ± 0.096
18,A69W,-0.668 ± 0.4
19,A69S,-0.074 ± 0.074
20,A69G,-0.196 ± 0.089
21,A69T,-0.361 ± 0.2
22,A69R,-0.964 ± 0.29
23,A69Q,-0.38 ± 0.054

# Reference: the Human Domainome abundance scans (Beltran et al. 2025)
